Experimental data published in the DeepSol protein solubility set.

Assay: soluble on expression in E. coli; label from the status in PepcDB or PDB records

| Sequence | soluble on expression in E. coli |
| --- | --- |
| QSTSNKTLDTLIVTGTRISDRTAAESSSPIDIISQESLEATGTTELATALSRMVPSLNFPRPAVSDGNDAVRPAQLRGLSPDQVLVLVNGKRYHTTALVNLNEIQGRGSAPADLNTIPIAAIERIEVLRDGASAQYGSDAIAGVINIVLKGAGKGGSITGHYGEYKVKDGKQYELSGDTGLSFAGTGKVHFAAQGGHEDQTNRAVPYNDGIIRQRYGDPKINQGAFSYNGSYSPTEGVTFYSFGMVSRRKVLSNGFYRWADDARNRPEIYPEGFLPQIYNVANDTSWVSGMKASTAWGLNIDLSYNYGNNQLTFDVRNSLNNSLGLSSPTAFYAGGLEITQHVLNADFNKSVDWGHLAYPLNLAFGVEWRGEIFNEYQGEEASYINGGVRSSAGTLLPGAQVFSGFKPSDSGGFDRNSHSMYIDLEGNLTEKFSAGVAGRYEHYSDFSNTR | not soluble |
| QTMGGDDVKVVQYNQEKLVQTRMSVADNGWIYVMTHSGYDTGNSNVKIFRSKDQGATYQKLRDWDPSDDYQFQDFDIVVTGKNESDIKIWSVELMNKPGGYKSRVAVFSRDANAQNAKLVYKEDFSNVQLYDVDIASNYRSPSSLNNGGNPFALAFAYTGFNNTHKISFVDYVFSLNGGQNFNKNLLFSQDGEKKIDKVDLSLGSTSESMGHNAWPLMGVVFEMNKQGGKSDIGFLSNFVDNDPEFQWSGPIKVSESDMSFSPKIQMLLDEDNNTINGESCHNFMITYSDYDSEYSDWDIRYVYPKKSFKYEKGKTPTMDDLVEAFLTASYQSETNSGLGYDKNANHYLITYAKKEENGTNTLKYRWANYDKIHNKDLWSDTFTYTSSANALYTPQVDINPTKGLVCWSWVEYLPGKRIVWSDTQWTHANGVEDIVMQEGSMKLYPNPAQE | not soluble |
| QTQTVAIIGMGSRGLSILEQLIGMSRHADQQPLQIEVFDPQPPGSGLHSAQQPDYLMLNTMAGQLSAFSSAFPACEPAGWTFLQWCGAQDVRLDERGHVSTNGLGRPVAFGDFVPRALLGRYLQHSYRFLLQQCPAHVQVRHYAERVIKCRSRSDAPGFRLRSLTREMNVDALFLTVGHASSATELQDVGATVAIEGLGLTAMDTLASLTQGRGGRYVRDAGFAGWRYLPSGREPRVFMYSRSGLPFHARPHWYPTRHAALPRLFFTAVAIGDLRKQNGGGQLDFQADVLPLIKDEMRAVFYQTKVRLDAPRQLEAVQRTLREAVARPALFARLAEQWGEFDPEQWLTTQRWTGEAGTYGQWFVEWIKRDLALSRLGTAHSPIRQALEVWRDCRDLLRLVADRNGLTESSTLAFYDTWAGLGNRLVGGPQKERHEDLLALIDAGVVTVLAPMSDAQQADSRFDSVMAARVAPSGLSGNRSALLDDLREQGL | not soluble |
| QVEVIVMMHGRSTATSMVETVQELLSIESGIALDMPLTVEVKAMYEKLKQTVVKLNPVKGVLILSDMGSLTSFGNILTEELGIRTKTVTMVSTPVVLEAMRKASLGRGLEDIYQSCEQLFENKYKAHVLRAKP | not soluble |
| QVQLQQSGPELVKPGALVKISCKASGYTFTNYDIHWVKQRPGQGLEWIGWIYPGDGSTKYNEKFKGKATLTADKSSSTAYMHLSSLTSEKSAVYFCAREWAYWGQGTLVTVSAAKTTAPSVYPLAPGCGDTTGSSVTLGCLVKGYFPEPVTLTWNSGSLSSGVHTFPAVLQSDLYTLSSSVTVTSSTWPSQSITCNVAHPASSTKVDKKIEPRGPTIKPC | soluble |
| QYSLLHVSDLFFLAQQAMPGVQVLDALTGKPVEGASVDASMRYSIDRSVHTLSPTDRYGRIDLPKSYNRFFPYTDGDRSYPVVSAYTYKQDQVDLSKKNERKYIVSTDRAIYRPGQKVHFFGQCDRIGYAVEDARAIGGSEVEVVLEDANSKEIGRLLCQADEMGRFSGSFDLPTGILNGLFGLRVGGDTYPFSVEEYKRPTFEVGLRSPDAAYAMGDTLRIRGEAKTFTGIGMRGATVNYRLSLTPYTRRWWGRPVADRVVQTGEAVVDES | not soluble |
| RAGYWEWNVENGTILIDRQWAVISGYNSADFDMLTMEQWRELCHPADLGVVTKSIEELLDGSMERLELELRVRHKNGEWIRVLDCGKVTGRSK | not soluble |
| RAKKETTMTDVRIQALHFDATDQLKDFVQKKISKLNRLSDGITGAEVVLKLVKPETVQNKEASIRLYIPGDDLFAEKIADTFEEAIDLTVDALKRQIEKRKEQRK | not soluble |
| RALIGRLPDGRADLLENFAAGPGLAQRFGERYPEHAGRDLRFIMELYHAGDTHARDYITATLAAAGETIAGFASAIDVDAIIIGGGVGNIGDAIIKPFAHGFAAHAIPPLDTIPIRQAQLGTDAPIVGAAHLGHSAIE | not soluble |
| RAPDLAGVPDCLVIVGGSMAAVKAPTALRRLREGGASTAVIATRAALAFITPLSLATAGNCEVATDETWFAPQPIAQHLSLARARVTVVLGASAELLAAAAHGHADTLATATLLSAEGQVLWVPAMNERMWLHPAVQANAERLRGWGHLFLGPETGAFGTPGEGSGTGRMAEPEAIAARALALLNEQDAEAEAAPQDLAGLKVV | not soluble |
| RATPRMEDLASTDLSTRATGSINAVYFTNWGIYGRNFQPADLQASKILHVLYSFMNLRVDGTVYSGDTYADLEKHYSDDSWNDIGTNAYGCVKQLYKLKKANRSLKIMLSIGGWTWSTNFPAAASTEATRATFAKTAVEFMKDWGFDGIDVDWEYPASETDANNMVLLLQRVRQELDSYSATYANGYHFQLSIAAPAGPSHYNVLKLAQLGSVLDNINLMAYDYAGSWDSVSGHQTNLYPSTSNPSSTPFSTKAAVDAYIAAGVPASKIILGMPIYGRAFVGTDGPGKPYSTIGEGSWESGIWDYKVLPKAGATVITDSAAGATYSYDSSSRTMISYDTPDMVRTKVSYAKGLGLGGSMFWEASADKTGSDSLIGTALSSMGSHDSTQNCLSYPNSKFDNIKNSLS | soluble |
| REEVRVVVGAERTELLLPLLRDKRVALVANATSVVGTEREHLLDNLLRQGVNVVKILGPEHGFRGDADAGATVKDERDVRTGIPIVSLYGKNKKPTPRMLADVDVLLFDMQDVGTRFFTYISTLHYVMEACAEEQKKLIVTDRPNPNDYVDGPILQDDCRSFVGVDPLPILHGLTIGELANMINGEGWLGKKEMKCDLTVVPMSGWKHGQEYALPVKPSPNLPTANAIAWYPSLCLFEATIMSVGRGTDFPFEVLGYPKKVFGSFVFVPRPIRGMDSNPLYKGRHCYGVDLRGEKAPRGLSLQLLIRYYQTARREGIKFVNRKQMFNLLAGTKELAQQIEKGRTEEQIRASWQSDLDKYHKLRKKYLLY | not soluble |
| RHAIAETLSQEIKQELKDLYMDKADFKVVFTKGKFNREGNETVAFHISTNPGEDFKPLVKVASGGELSRLMLAIKSAFSRREDKTSIVFDEVDTGVSGRVAQAIAQKIYKIGNHGQVLAISHIPQVIAISDYQYFIEKQSSKATTVSTVRLLNQEERIEEIAKML | not soluble |
| RIRKEPPVYAAGSLEEQWYLEIVDKGSVSCPTCQAVGRKTIEGLKKHMENCKQEMFTCHHCGKQLRSLAGMKYHVMANHNSLP | soluble |
| RIVEIPVCYGGEFGPDLEEVAKINQLSPEEVIDIHTNGEYVVYMLGFAPGFPFLGGMSKRIAAPRKSSPRPSIPAGSVGIAGLQTGVYPISTPGGWQLIGKTPLALFRPQENPPTLLRAGDIVKFVRISEKDYHAYKEESN | soluble |
| RMLTDRRVHDADFLTDELGLTSLGLVNHQHHHSMKKQALNLNGGYHTHNDRTSSQAMKRV | not soluble |
| RMTVWQLDLQKRLVQVDGDVARLIGLSHVPPELPVAVFENYVDPEDLPLLRAAEAAALRGEPMQVELRLVLESGGRRWLRLMGEPRPDA | not soluble |
| RNHWVSQYSSVKQEKNEKWQRHWREILGEDTEDLPPYRYDYGLYSGIWQANETLREQCFAALTHGNSVYERVKAFQKMTTHEHNTDDQILLSKLAQLENEIIQALEQHSQKNVSIETGSGTLCKESKHNVYRHENGPTEEQLYNSINLQHDLDRELRNIIYDRLGDDGLDEYFFLRAPLEELTENETAINWMLWGLVSDHFDVDPYQTALELNLMNAEPRWGQDERFVVVTTAA | not soluble |
| RPQGLHLELETRLQKMYGIRQVIVVEATEPDDEESIKQAIGSAAAHYLETSLSAQDHIGISSWSSTIRAMVSHMHPQPGKQSAQEVVQLLGGVGNKGAFEATLLTQRLATLLNCPAFLLPSQSIEQSVESKQRIVEMEEVKEVLHRFDSITLAIVGIGELEPSQLLRNSGNYYTEDMLRVLAERGAVGDICLRYFDAQGKPVLEEDEEFVVSMGLGKLRSINRVLGLAGGVRKVQAIKGALLGGYLDVLITDVGTARGLGG | soluble |
